Laboratory results reported in the supplement of paper PMC9112550, “Optimization of the antimicrobial peptide Bac7 by deep mutational scanning” (BMC Biology, 2022).

System: Escherichia coli TOP10
Assay: shrunken log2 fold change of peptide-encoding DNA abundance (4.5 h post-induction vs induction); higher = less antimicrobial activity (less host growth inhibition)
Details: time post-induction: 4.5 h; library: site-saturation at positions 5, 18, 19, 20
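Further: peptides expressed intracellularly from a pBAD plasmid library in pooled LB shake-flask culture, induced with 0.3% L-arabinose, DNA abundance read by NGS, three biological replicates, DESeq2 with apeglm shrinkage.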

## RRIRTRPPRLPRPRPRPPWCPRP
  shrunken log2 fold change: 0.28

## RRIRDRPPRLPRPRPRPCGLPRP
  shrunken log2 fold change: 0.371

## RRIRCRPPRLPRPRPRPDMEPRP
  shrunken log2 fold change: 0.000584

## RRIRTRPPRLPRPRPRPDSLPRP
  shrunken log2 fold change: -0.153

## RRIRERPPRLPRPRPRPQSMPRP
  shrunken log2 fold change: -0.0801

## RRIRERPPRLPRPRPRPHMDPRP
  shrunken log2 fold change: -1.21

## RRIRNRPPRLPRPRPRPTDKPRP
  shrunken log2 fold change: 0.008

## RRIRARPPRLPRPRPRPDDMPRP
  shrunken log2 fold change: 0.371

## RRIRKRPPRLPRPRPRPHPKPRP
  shrunken log2 fold change: 0.386

## RRIRQRPPRLPRPRPRPYFSPRP
  shrunken log2 fold change: -0.451

## RRIRMRPPRLPRPRPRPTARPRP
  shrunken log2 fold change: 1.22

## RRIRHRPPRLPRPRPRPNTPPRP
  shrunken log2 fold change: 0.0157

## RRIRVRPPRLPRPRPRPIKRPRP
  shrunken log2 fold change: 0.048

## RRIRNRPPRLPRPRPRPWDRPRP
  shrunken log2 fold change: -0.0515

## RRIRARPPRLPRPRPRPSSIPRP
  shrunken log2 fold change: 0.101

## RRIRSRPPRLPRPRPRPTVRPRP
  shrunken log2 fold change: -0.00791

## RRIRNRPPRLPRPRPRPCDEPRP
  shrunken log2 fold change: -0.035

## RRIRDRPPRLPRPRPRPYVNPRP
  shrunken log2 fold change: -1.59

## RRIRHRPPRLPRPRPRPESTPRP
  shrunken log2 fold change: 0.0536

## RRIRCRPPRLPRPRPRPVRGPRP
  shrunken log2 fold change: 0.59

## RRIRWRPPRLPRPRPRPTCEPRP
  shrunken log2 fold change: 0.752

## RRIRYRPPRLPRPRPRPLCKPRP
  shrunken log2 fold change: -0.588

## RRIRMRPPRLPRPRPRPIGCPRP
  shrunken log2 fold change: 0.176

## RRIRQRPPRLPRPRPRPDITPRP
  shrunken log2 fold change: -0.00487

## RRIRPRPPRLPRPRPRPSQMPRP
  shrunken log2 fold change: 0.185

## RRIRSRPPRLPRPRPRPESLPRP
  shrunken log2 fold change: 0.0154

## RRIRQRPPRLPRPRPRPTFNPRP
  shrunken log2 fold change: -0.201

## RRIRCRPPRLPRPRPRPSKCPRP
  shrunken log2 fold change: -0.266

## RRIRMRPPRLPRPRPRPGPLPRP
  shrunken log2 fold change: 0.532

## RRIRPRPPRLPRPRPRPKPEPRP
  shrunken log2 fold change: 0.311

## RRIRDRPPRLPRPRPRPVNYPRP
  shrunken log2 fold change: -0.116

## RRIRYRPPRLPRPRPRPAHAPRP
  shrunken log2 fold change: 0.154

## RRIRFRPPRLPRPRPRPLHDPRP
  shrunken log2 fold change: -0.107

## RRIRDRPPRLPRPRPRPKATPRP
  shrunken log2 fold change: 0.00253

## RRIRWRPPRLPRPRPRPDHFPRP
  shrunken log2 fold change: -0.0288

## RRIRSRPPRLPRPRPRPPCQPRP
  shrunken log2 fold change: -0.0943

## RRIRERPPRLPRPRPRPKVRPRP
  shrunken log2 fold change: -0.0607

## RRIRPRPPRLPRPRPRPDGPPRP
  shrunken log2 fold change: -0.101

## RRIRFRPPRLPRPRPRPMHTPRP
  shrunken log2 fold change: 0.5

## RRIRMRPPRLPRPRPRPFMQPRP
  shrunken log2 fold change: -0.00899

## RRIRQRPPRLPRPRPRPQREPRP
  shrunken log2 fold change: 0.00728

## RRIRDRPPRLPRPRPRPEDGPRP
  shrunken log2 fold change: 0.316

## RRIRCRPPRLPRPRPRPFHYPRP
  shrunken log2 fold change: -2.22e-05

## RRIRARPPRLPRPRPRPRLKPRP
  shrunken log2 fold change: 0.547

## RRIRSRPPRLPRPRPRPKIHPRP
  shrunken log2 fold change: -0.0501

## RRIRYRPPRLPRPRPRPLETPRP
  shrunken log2 fold change: -0.0196

## RRIRCRPPRLPRPRPRPNVFPRP
  shrunken log2 fold change: -0.24

## RRIRSRPPRLPRPRPRPYNTPRP
  shrunken log2 fold change: -1.1

## RRIRTRPPRLPRPRPRPGEVPRP
  shrunken log2 fold change: 0.211

## RRIRERPPRLPRPRPRPHEHPRP
  shrunken log2 fold change: -0.205

## RRIRTRPPRLPRPRPRPHAYPRP
  shrunken log2 fold change: -0.635

## RRIRERPPRLPRPRPRPNGEPRP
  shrunken log2 fold change: -0.0424

## RRIRARPPRLPRPRPRPCHLPRP
  shrunken log2 fold change: -0.171

## RRIRWRPPRLPRPRPRPIYDPRP
  shrunken log2 fold change: -0.227

## RRIRCRPPRLPRPRPRPNWMPRP
  shrunken log2 fold change: -0.805

## RRIRKRPPRLPRPRPRPSGTPRP
  shrunken log2 fold change: 0.113

## RRIRWRPPRLPRPRPRPGNYPRP
  shrunken log2 fold change: -0.00177

## RRIRMRPPRLPRPRPRPINCPRP
  shrunken log2 fold change: -0.0244

## RRIRKRPPRLPRPRPRPHVVPRP
  shrunken log2 fold change: -0.183

## RRIRRRPPRLPRPRPRPIERPRP
  shrunken log2 fold change: 0.0771

## RRIRYRPPRLPRPRPRPPLLPRP
  shrunken log2 fold change: -0.385

## RRIRPRPPRLPRPRPRPIPAPRP
  shrunken log2 fold change: 0.342

## RRIRERPPRLPRPRPRPHYKPRP
  shrunken log2 fold change: -0.901

## RRIRGRPPRLPRPRPRPQEGPRP
  shrunken log2 fold change: 0.0358

## RRIRRRPPRLPRPRPRPWELPRP
  shrunken log2 fold change: 0.0522

## RRIRQRPPRLPRPRPRPQIGPRP
  shrunken log2 fold change: -0.0384

## RRIRIRPPRLPRPRPRPEGHPRP
  shrunken log2 fold change: -0.00139

## RRIRYRPPRLPRPRPRPWCTPRP
  shrunken log2 fold change: -1.06

## RRIRVRPPRLPRPRPRPHHDPRP
  shrunken log2 fold change: -0.37

## RRIRPRPPRLPRPRPRPTQKPRP
  shrunken log2 fold change: 0.0334

## RRIRDRPPRLPRPRPRPDCDPRP
  shrunken log2 fold change: 0.122

## RRIRIRPPRLPRPRPRPGHNPRP
  shrunken log2 fold change: -0.0704

## RRIRGRPPRLPRPRPRPYVRPRP
  shrunken log2 fold change: -0.51

## RRIRFRPPRLPRPRPRPHSPPRP
  shrunken log2 fold change: -0.389

## RRIRKRPPRLPRPRPRPMMMPRP
  shrunken log2 fold change: 0.619

## RRIRDRPPRLPRPRPRPTPWPRP
  shrunken log2 fold change: 0.66

## RRIRVRPPRLPRPRPRPNNHPRP
  shrunken log2 fold change: -0.454

## RRIRKRPPRLPRPRPRPRAWPRP
  shrunken log2 fold change: 0.389

## RRIRVRPPRLPRPRPRPRFFPRP
  shrunken log2 fold change: 0.287

## RRIRMRPPRLPRPRPRPSFIPRP
  shrunken log2 fold change: -0.668

## RRIRRRPPRLPRPRPRPESHPRP
  shrunken log2 fold change: 0.589

## RRIRNRPPRLPRPRPRPNFEPRP
  shrunken log2 fold change: -0.0924

## RRIRARPPRLPRPRPRPPRFPRP
  shrunken log2 fold change: 1.13

## RRIRPRPPRLPRPRPRPGLHPRP
  shrunken log2 fold change: 0.09

## RRIRSRPPRLPRPRPRPMHWPRP
  shrunken log2 fold change: -0.159

## RRIRKRPPRLPRPRPRPFFDPRP
  shrunken log2 fold change: 0.112

## RRIRCRPPRLPRPRPRPAGWPRP
  shrunken log2 fold change: 0.719

## RRIRKRPPRLPRPRPRPPWLPRP
  shrunken log2 fold change: 0.574

## RRIRKRPPRLPRPRPRPPCEPRP
  shrunken log2 fold change: 0.509

## RRIRIRPPRLPRPRPRPQSFPRP
  shrunken log2 fold change: 0.0784

## RRIRWRPPRLPRPRPRPDRRPRP
  shrunken log2 fold change: -0.0279
